# US20070134248A1
# B1: mAb clone 12C3 (antibody, V domains shown)
# VH: EVKLVESGGGLVQPGGSLSLSCAASGFTYTDYYMNWVRQPPGKALEWLALIRNKANGYTTEYSASLKGRFTISRDNSQSILYLQMNALRAEDSATYYCVRENINYYFDYWGQGTTLTVSS
# VL: DIVLTQSPASLAVSLGQRATISCRASESVEYFGASLMQWYQQKSGQPPKLLIRAATNVESGVPARFSGSGSGTDFSLNIHPVEEDDIAMYFCQQSRKVPWTFGGGTKLEIKR
# Target: KV4-1 Id proteins
# Assay: ELISA
binder,measurement,value
B1,KV4-1 Id proteins recognized / tested (of 41 Id proteins),35
